Numbering of substitutions follows the chain as printed.
How the values were obtained:
Test in all cases: cell_activity; CHO iGFFP reporter
[1] = target: T1, LOX 3-4 M.47 (artificial (I-CreI derived))
T1 chain: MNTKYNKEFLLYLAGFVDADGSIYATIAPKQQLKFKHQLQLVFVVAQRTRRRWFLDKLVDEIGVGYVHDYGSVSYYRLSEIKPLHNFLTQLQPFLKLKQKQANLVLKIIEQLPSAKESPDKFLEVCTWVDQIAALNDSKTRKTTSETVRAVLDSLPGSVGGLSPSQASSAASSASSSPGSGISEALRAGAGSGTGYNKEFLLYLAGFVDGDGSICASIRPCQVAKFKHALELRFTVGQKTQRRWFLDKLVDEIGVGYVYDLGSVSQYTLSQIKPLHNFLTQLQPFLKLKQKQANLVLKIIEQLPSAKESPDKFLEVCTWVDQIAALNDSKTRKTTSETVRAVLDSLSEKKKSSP
From the text: (§1) A CHO cell reporter system (see WO/2012/167192, FIG. 3) was used to determine whether the engineered meganucleases generated in these studies could recognize and cleave the modified LOX 3-4 recognition sequences in Table 87. To perform the assay, a pair of CHO cell reporter lines were produced, which carried a non-functional Green Fluorescent Protein (GFP) gene expression cassette integrated into the genome of the cell. The GFP gene in each cell line was interrupted by a pair of recognition sequences such that intracellular cleavage of either recognition sequence by a meganuclease would stimulate a homologous recombination event resulting in a functional GFP gene. In both cell lines, one of the recognition sequences was derived from the LOX 3-4 recognition sequence (i.e., those sequences disclosed in Table 87), and the second recognition sequence was specifically recognized by a control meganuclease called “CHO 23/24.” CHO reporter cells comprising a recognition sequence derived from the LOX 3-4 recognition sequence and the CHO 23/24 recognition sequence are referred to herein as “test cells.”
(§2) Novel engineered meganucleases derived from the LOX 3-4x.109 meganuclease were prepared by making amino acid substitutions at one or more positions in the first subunit. These engineered meganucleases were then evaluated for cleavage of the LOX 3-4 recognition sequence modified to have a GTGA center sequence (SEQ ID NO: 434) in the CHO reporter assay according to Example 1. Novel meganucleases which were modified to comprise the residues recited in the tables below were capable of cleaving the LOX 3-4 recognition sequence having a GTGA four base pair center sequence.

[2] = target: T2, LOX 3-4 M.36 (artificial (I-CreI derived))
T2 chain: T1 chain with R48K, G71R, S72H, S74T, E80Q, K139R
From the text: as §1, §2

[3] = target: T3, LOX 3-4 M.39 (artificial (I-CreI derived))
T3 chain: T1 chain with A19S, R48A, G71S, S72K, E80Q, K139R
From the text: as §1, §2

[4] = target: T4, LOX 3-4 m.108 (artificial (I-CreI derived))
T4 chain: T1 chain with R48K, G71S, S72G, V73R, E80Q
From the text: as §1
as §2, with “GTAG” for “GTGA”, “390)” for “434)”

[5] = target: T5, LOX 3-4 m.97 (artificial (I-CreI derived))
T5 chain: T1 chain with R48K, G71S, S72G, V73R, E80Q
From the text: as §1
as §2, with “GTAG” for “GTGA”, “390)” for “434)”

[6] = target: T6, LOX 3-4 m.111 (artificial (I-CreI derived))
T6 chain: T1 chain with R48K, G71S, S72N, V73R, E80Q
From the text: as §1
as §2, with “GTAG” for “GTGA”, “390)” for “434)”

[7] = target: T7, LOX 3-4 m.140 (artificial (I-CreI derived))
T7 chain: T1 chain with A19S, R48A, S72R, V73A, E80Q, K139R
From the text: as §1
as §2, with “GTAT” for “GTGA”, “400)” for “434)”

[8] = target: T8, LOX 3-4 m.152 (artificial (I-CreI derived))
T8 chain: T1 chain with A19S, R48A, G71N, S72R, V73A, S74A, E80Q
From the text: as §1
as §2, with “GTAT” for “GTGA”, “400)” for “434)”

[9] = target: T9, LOX 3-4 m.149 (artificial (I-CreI derived))
T9 chain: T1 chain with A19S, R48A, R50K, S72R, V73A, E80Q, K139R
From the text: as §1
as §2, with “GTAT” for “GTGA”, “400)” for “434)”

B1: LOX 3-4 GTGA (dsDNA)
DNA 1: GTATAGCATGTGATATACGAAG
DNA 2: CTTCGTATATCACATGCTATAC
Binder B1 has an activity [1] of 10.1 % GFP, an activity [2] of 2.75 % GFP and an activity [3] of 8.66 % GFP.

B2: LOX 3-4 GTAG (dsDNA)
DNA 1: GTATAGCATGTAGTATACGAAG
DNA 2: CTTCGTATACTACATGCTATAC
B2 showed an activity [4] of 19.7 % GFP, an activity [5] of 17.2 % GFP and an activity [6] of 17 % GFP.

B3: LOX 3-4 GTAT (dsDNA)
DNA 1: GTATAGCATGTATTATACGAAG
DNA 2: CTTCGTATAATACATGCTATAC
In the case of B3, the activity [7] is reported as 13.1 % GFP, the activity [8] is reported as 4.43 % GFP and the activity [9] is reported as 12.9 % GFP.
